{"source": "patent CN111620945A", "about": "(JIANGSU DISEASE CONTROL AND PREVENTION CENTER JIANGSU …, dated 2020)", "binders": {"B1": {"name": "FC05 (antibody, V domains shown)", "VH": "VQLLEQSGAEVKKPGASVRVSCKVSGYTLPEVAMHWVRQAPGKGLEWMGGFDPEDGETIYAQKFQGRVTMTEDTSTDTAYMELSSLRSEDTAVYYCATTTPFSSSFWFDPWGQGTLVTVSS", "VL": "QSVLTQAPSVSGAPGQKVTISCSGSSSNIGNNYVSWYQQLPGTAPKLLIYDNNKRPSGIPDRFSGSKSGTSATLGITGLQTGDEADYYCGTWDSSLSAVVFGGGTKLTVL"}, "B2": {"name": "FC11 (antibody, V domains shown)", "VH": "EVQLLESGGGVVQPGRSLRLSCAASGFTFSYYGMHWVRQAPGTGLEWVAVISYDGSNEYYADSVKGRFTISRDNSKNTLYLQMNSLRAEDTAVYYCAKAMFLGDSSGLTGLDMDVWGQGTTVTVSS", "VL": "DIELTQSPGTLSLSPGERATLSCRASQSVSSYLAWYQQKPGQAPRLLIYDASNRATGIPARFSGSGSGTDFTLTISSLEPEDFALYYCQQRGNWPPTFGGGTKLEIK"}, "B3": {"name": "FC08 (antibody, V domains shown)", "VH": "VQLLQQSGAEVKKPGSSVKVSCKASGGTFSSYAISWVRQAPGQGLEWMGGIIPILGIANYAQKFQGRVTITADKSTSTAYMELSSLRSEDTAVYYCVRERGYSGYGAAYYFDYWGQGTLVTVSS", "VL": "QSVLTQPPSVSGAPGQRVTISCTGSSSNIGAGYDVHWYQQLPGTAPKLLIYGNSNRPSGVPDRFSGSKSGTSASLAITGLQAEDEADYYCQSYDSSLSGSVFGGGTKLTVL", "notes": "also called FC08抗体"}}, "key": {"[1]": {"biological_target": "SARS-CoV-2 Spike蛋白(刺突蛋白) of the isolate BetaCoV/JS03/human/2020, on live virus (SARS-CoV-2, UniProt P0DTC2 14-1273)", "assay": "cell-based or functional assay"}, "[2]": {"biological_target": "重组SARS-CoV-2刺突蛋白胞外区 (extra cellular domain of spike protein, S-ECD) (SARS-CoV-2, UniProt P0DTC2 14-1213)", "assay": "SPR, Biacore 8K, S-ECD immobilised on a CM5 chip, antibody 125-7.8 nM"}, "[3]": {"biological_target": "重组SARS-CoV-2刺突蛋白胞外区 (extra cellular domain of spike protein, S-ECD) (SARS-CoV-2, UniProt P0DTC2 14-1213)", "assay": "SPR, Biacore 8K, S-ECD immobilised on a CM5 chip, antibody 125-7.8 nM", "remark": "listed apart in the source"}, "[4]": {"biological_target": "SARS-CoV-2 Spike蛋白(刺突蛋白) of the isolate BetaCoV/JS03/human/2020, on live virus (SARS-CoV-2, UniProt P0DTC2 14-1273)", "assay": "cell-based or functional assay", "remark": "listed apart in the source"}}}
{"binder": "B1", "values": [{"measurement": "IC50(ng/ml), 体外中和实验 (live virus, Vero E6, CPE)", "setting": "[1]", "result": 142, "unit": "ng/mL"}]}
{"binder": "B2", "values": [{"measurement": "Kd", "setting": "[2]", "result": 500, "unit": "pM"}, {"measurement": "IC50(ng/ml), 体外中和实验 (live virus, Vero E6, CPE)", "setting": "[1]", "result": 818, "unit": "ng/mL"}]}
{"binder": "B3", "values": [{"measurement": "Kd", "setting": "[3]", "result": 800, "unit": "pM"}, {"measurement": "IC50(ng/ml), 体外中和实验 (live virus, Vero E6, CPE)", "setting": "[4]", "result": 325, "unit": "ng/mL"}]}
